{"source": "patent US20060084097", "key": {"[1]": {"target": "T1, 8-residue Asp-peptide (DHGSGAWL)", "T1 chain": "CHSGAWL"}, "CysO3H-peptide": {"target": "T2, CysO3H-peptide", "T2 chain": "CHGSGAWL"}, "[2]": {"target": "T3, 8-residue Cys-peptide (CHGSGAWL)", "T3 chain": "CHGSGAWL"}, "[3]": {"target": "Asp-RGS4 (X-RGS4-flag, X=Asp)"}, "[4]": {"target": "Val-RGS4 (X-RGS4-flag, X=Val)"}, "[5]": {"target": "Cys-RGS4 (X-RGS4-flag, X=Cys)"}}, "data": [{"protein": "S. cerevisiae ATE1 Arg-tRNA-protein transferase C-terminally tagged with His6 (protein) MSDRFVIWAPSMHNEPAAKCGYCHGNKGGNMDQLFALDSWAHRYMNKMDVVKIENCTIGSFVEHMDVATYDRMCNMGFRRSGKFLYKVDPLRNCCRLYTIRTAPQELNMTKELKKCISRFATRITSEDYCPAAVASSDFVGKIVNAEMNSKTFYTRFEPALYSEEKYHLFVKYQEKVHQDYNNSPKSFKRFLCDTPFGPEAVLGTQESWEQLNNWQRMKPGEKLKHMGPVHECYYYEGKLIAITVSDILPSGISSVYFIWDPDYSKWSLGKLSALRDLAIIQRTNLQYYYLGYYIEDCPKMNYKANYGAEVLDVCHSKYIPLKPIQDMISRGKLFVIGEEETKVTKELYLVDSETGRGEGFPTDNVVKYKNIAEEIYGVGGCAFKSANESALELKELYGIPYEEEDLDTIYHLKEHNGHAPNGIPNVVPGLLPLWELLDIMQSGKITDLEGRLFLFEIETEGIRPLINFYSEPPNVKKRICDVIRLFGFETCMKAVILYSEQMHHHHHH", "values": [{"measurement": "arginylation of peptide (capillary electrophoresis)", "setting": "[1]", "result": "The same results were obtained when mouse ATE1-1 was replaced, in the above assays, with purified S. cerevisiae ATE1 R-transferase"}, {"measurement": "arginylation of peptide (capillary electrophoresis)", "setting": "CysO3H-peptide", "result": "Yeast R-transferase efficiently arginylated CysO3H-peptide, but not Cys-peptide"}, {"measurement": "arginylation of peptide (capillary electrophoresis)", "setting": "[2]", "result": "Yeast R-transferase efficiently arginylated CysO3H-peptide, but not Cys-peptide"}]}, {"protein": "mouse ATE1-1 R-transferase C-terminally tagged with the polyoma and His6 epitopes (protein) MASWSAPSPSLVEYFEGQTSFQCGYCKNKLGSRSYGMWAHSMTVQDYQDLIDRGWRRSGKYVYKPVMDQTCCPQYTIRCHPLQFQPSKSHKKVLKKMLKFLAKGEISKGNCEDEPMDSTVEDAVDGDFALINKLDIKCDLKTLSDLKGSIESEEKEKEKSIKKEGSKEFIHPQSIEEKLGSGEPSHPIKVHIGPKPGKGADLSKPPCRKAREMRKERQRLKRMQQASAAASEAQGQPVCLLPKAKSNQPKSLEDLIFQSLPENASHKLEVRVVRSSPPSPQFRATFQESYQVYKRYQMVVHKDPPDKPTVSQFTRFLCSSPLEAEHPADGPECGYGSFHQQYWLDGKIIAVGVLDILPYCVSSVYLYYDPDYSFLSLGVYSALREIAFTRQLHEKTSQLSYYYMGFYIHSCPKMRYKGQYRPSDLLCPETYVWVPIEQCLPSLDNSKYCRFNQDPEAEDEGRSKELDRLRVFHRRSAMPYGVYKNHQEDPSEEAGVLEYANLVGQKCSERMLLFRHHHHHHH", "values": [{"measurement": "3H-arginine conjugation (SDS-PAGE and fluorography)", "setting": "[3]", "result": "Asp-RGS4 was efficiently arginylated irrespective of NO pretreatment"}, {"measurement": "arginylation of peptide (capillary electrophoresis, MALDI-TOF MS), pH 7.5", "setting": "[1]", "result": "the Asp-peptide and the CysO3H-peptide were efficiently arginylated"}, {"measurement": "arginylation of peptide (capillary electrophoresis, MALDI-TOF MS), pH 7.5", "setting": "CysO3H-peptide", "result": "the Asp-peptide and the CysO3H-peptide were efficiently arginylated"}, {"measurement": "3H-arginine conjugation (SDS-PAGE and fluorography)", "setting": "[4]", "result": "Val-RGS4 was not arginylated"}, {"measurement": "3H-arginine conjugation (SDS-PAGE and fluorography)", "setting": "[5]", "result": "a virtually complete dependence of the in vitro arginylation of Cys-RGS4 on its prior exposure to a donor of NO"}, {"measurement": "arginylation of peptide (capillary electrophoresis), pH 9.0", "setting": "[2]", "result": "arginylation of Cys-peptide was undetectable even at pH 9.0, in contrast to arginylation of CysO3H-peptide and Asp-peptide"}, {"measurement": "arginylation of peptide (capillary electrophoresis, MALDI-TOF MS), pH 7.5", "setting": "[2]", "result": "the Cys-peptide was not arginylated"}]}]}
